According to patent publication US20110257373A1 (published 2011):
Substitutions are numbered along the chain they refer to.

B1: LIP1-27 (other)
VH: EVQLLESGGGLVQPGGSLRLSCAASGFTFEQTDMHWARQAPGKGPEWVSSISPLGAFTYYADSVKGRFTISRDNSKNTLYLQMNSLRAEDTAVYYCAKSPLVRNNGQFDYWGQGTLVTVSS
B2: LIP1-28 (other)
VH: EVQLLESGGGLVQPGGSLRLSCAASGFTFVATPMHWVRQAPGKGLEWVSAISGSGGSTYYADSVKGRFTISRDNSKNTLYLQMNSLRAEDTAVYYCAKGWDPSLERFDYWGQGTLVTVSS
B3: 1-13 (other)
VK dAb: DIQMTQSPSSLSASVGDRVTITCRASQGIWQELKWYQQKPGKAPRLLIYRGSSLQSGVPSRFSGSGSGTDFTLTISSLQPEDFATYYCQQSFYPPYTFGQGTKVEIKR
notes: human VK domain antibody, tested as phage particles; also called LIP1-13; LIP1-13 phage
B4: 1-23 (other)
VK dAb: B3 VK dAb with G28D, Q31R, K34R, R45K, G51A, S53N, F62L, S91T
notes: human VK domain antibody, tested as phage particles; also called LIP1-23; LIP1-23 phage
B5: LIP1-33 (other)
VH: EVQLLESGGGLVQPGGSLRLSCAASGFTFPSGTMGWVRQAPGKGLEWVSYIDPSGFMTYYADSVKGRFTISRDNSKNTLYLQMNSLRAEDTAVYYCAKSIVPRSGTFDYWGQGTLVTVSS
notes: Human VH domain antibody (dAb); also called LIP1-33 phage
B6: LIP1-29 (other)
VH: EVQLLESGGGLVQPGGSLRLSCAASGFTFDRRAMGWVRQAPGKGLEWVSSIESDGTRTYYADSVKGRFTISRDNSKNTLYLQMNSLRAEDTAVYYCAKHPGSSYVFDYWGQGTLVTVSS
notes: all other claims print 34
B7: DC-SIGN peptide (9xHIS tag, linker and the C-terminal end of DC-SIGN) (peptide)
peptide: HHHHHHHHHSGSGKKSAASCSRDEEQFLSPAPATPNPPPA
notes: also called HIS tagged DC-SIGN peptide
B8: LIP1-25 (other)
VH: EVQLLESGGGLVQPGGSLRLSCAASGFTFPDADMVWVRQAPGKGLEWVSSISDHGFNTYYADSVKGRFTISRDNSKNTLYLQMNSLRAEDTAVYYCAKSPLATFDYWGQGTLVTVSS
B9: 1-12 (other)
VK dAb: DIQMTQSPSSLSASVGDRVTITCRASRPIGTNLYWYQQKPGKAPKLLIVGGSFLQSGVPSRFSGSGSGTDFTLTISSLQPEDFATYYCGQRARYPGTFGQGTKVEIKR
notes: human VK domain antibody, tested as phage particles; also called LIP1-12; LIP1-12 phage
B10: 1-26 (other)
VH dAb: EVQLLESGGGLVQPGGSLRLSCAASGFTFSHYTMSWVRQAPGKGLEWVSSISSTGFKTYYADSVKGRFTISRDNSKNTLYLQMNSLRAEDTAVYYCAKWNPHRSTYFDYWGQGTLVTVSS
notes: human VH domain antibody, tested as phage particles; also called LIP1-26; LIP1-26 phage
B11: 1-15 (other)
VK dAb: DIQMTQSPSSLSASVGDRVTITCRASRAIGTYLAWYQQKPGKAPKLLILWGSVLQSGVPSRFSGSGSGTDFTLTISSLQPEDFATYYCAQLAQRPSTFGQGTKVEIKR
notes: human VK domain antibody, tested as phage particles; also called LIP1-15; LIP1-15 phage
B12: LIP1-30 (other)
VH: EVQLLESGGGLVQPGGSLRLSCAASGFTFSGYSMAWVRQAPGKGLEWVSQIGPLGVKTYYADSVKGRFTISRDNSKNTLYLQMNSLRAEDTAVYYCAKLTSDAHDFDYWGQGTLVTVSS
notes: all other claims print 29

Tests used:
human DC-SIGN [1] = target: T1, human DC-SIGN (human, UniProt Q9NNX6 62-404, limits assumed); experiment: phage ELISA
T1 construct: Coated on ELISA wells; also called CD209; DC-SIGN protein
T1 sequence: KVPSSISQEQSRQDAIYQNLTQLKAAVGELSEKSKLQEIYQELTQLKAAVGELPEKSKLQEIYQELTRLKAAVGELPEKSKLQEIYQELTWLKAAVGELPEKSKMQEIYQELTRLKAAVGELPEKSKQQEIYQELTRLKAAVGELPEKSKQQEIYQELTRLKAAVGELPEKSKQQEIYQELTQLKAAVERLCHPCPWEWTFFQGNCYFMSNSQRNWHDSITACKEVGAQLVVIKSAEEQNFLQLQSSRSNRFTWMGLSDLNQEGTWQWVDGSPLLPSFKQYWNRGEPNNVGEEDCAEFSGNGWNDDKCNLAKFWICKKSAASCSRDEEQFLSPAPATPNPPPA

human DC-SIGN [2] = target: T1, human DC-SIGN; experiment: phage ELISA: DC-SIGN coated on the wells, serial dilutions of phage particles, detection with anti-M13 antibody-HRP and TMB, OD 450
Protocol: (§1) Phage particles from individual LIP1 clones were prepared, and serial dilutions of phage particles were tested in ELISA. The ELISA wells were coated overnight at 4° C. with DC SIGN (1-10 μg/ml in PBS or 0.1 M NaHCO₃ buffer, pH 9.6). After blocking the wells with PBS containing 2% skimmed-milk powder (PBSM), phage was incubated in PBSM for 1 hr. After washing with PBS, bound phage were detected using a conjugate of horseradish peroxidase with an anti-M13 monoclonal antibody (Amersham) using 3,3′,5,5′-tetramethylbenzidine as substrate.
as §1, with “For” for “Phage particles from individual LIP1 clones were prepared, and serial dilutions of”, “ELISA, the” for “particles were tested in ELISA. The”, “SIGN or DC SIGNR (R&D Cat nr 162-D2) at” for “SIGN”

human DC-SIGN [3] = target: T1, human DC-SIGN; experiment: phage ELISA: DC-SIGN coated on the wells, serial dilutions of LIP1-33 phage, detection with anti-M13 antibody-HRP and TMB, OD450
Protocol: as §1, with “LIP1-33” for “individual LIP1 clones”, “DC SIGNR, neutravidin, DC” for “DC”, “SIGN or DC SIGN peptide” for “SIGN”, “substrate. HEL4 and VKdummy are non-binding negative controls.” for “substrate.”
as §1, with “For” for “Phage particles from individual LIP1 clones were prepared, and serial dilutions of”, “ELISA, the” for “particles were tested in ELISA. The”, “SIGN or DC SIGNR (R&D Cat nr 162-D2) at” for “SIGN”

DC-SIGNR = target: T2, DC-SIGNR (Homo sapiens (Human), UniProt Q9H2X3 78-399, limits assumed); experiment: phage ELISA: DC-SIGNR coated on the wells, serial dilutions of LIP1-33 phage, detection with anti-M13 antibody-HRP and TMB, OD450
T2 construct: Bought (R&D Cat nr 162-D2)
T2 sequence: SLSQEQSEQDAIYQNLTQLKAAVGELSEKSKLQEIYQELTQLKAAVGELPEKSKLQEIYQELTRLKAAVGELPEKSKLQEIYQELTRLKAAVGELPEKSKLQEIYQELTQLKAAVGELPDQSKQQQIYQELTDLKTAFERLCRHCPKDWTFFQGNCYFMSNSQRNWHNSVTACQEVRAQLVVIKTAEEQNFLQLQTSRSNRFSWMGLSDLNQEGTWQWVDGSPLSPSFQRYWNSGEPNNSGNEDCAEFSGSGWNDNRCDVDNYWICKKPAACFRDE
Protocol: as §1, with “LIP1-33” for “individual LIP1 clones”, “DC SIGNR, neutravidin, DC” for “DC”, “SIGN or DC SIGN peptide” for “SIGN”, “substrate. HEL4 and VKdummy are non-binding negative controls.” for “substrate.”
as §1, with “For” for “Phage particles from individual LIP1 clones were prepared, and serial dilutions of”, “ELISA, the” for “particles were tested in ELISA. The”, “SIGN or DC SIGNR (R&D Cat nr 162-D2) at” for “SIGN”

[4] = target: B7; experiment: phage ELISA: DC-SIGN peptide coated on the wells, serial dilutions of LIP1-33 phage, detection with anti-M13 antibody-HRP and TMB, OD450
Protocol: as §1, with “LIP1-33” for “individual LIP1 clones”, “DC SIGNR, neutravidin, DC” for “DC”, “SIGN or DC SIGN peptide” for “SIGN”, “substrate. HEL4 and VKdummy are non-binding negative controls.” for “substrate.”

LIP1-33 = target: B5; experiment: competition phage ELISA; HIS tagged peptide in solution as competitor (data not shown)

Binder	binding result (human DC-SIGN [1])	binding result (human DC-SIGN [2])	further results
B1	binds		
B2	binds		
B3		binds	
B4		binds	
B5			binding result (human DC-SIGN [3]): binds; binding result (DC-SIGNR): no binding; binding result [4]: binds
B6		binds	
B7			binding result (LIP1-33): binds
B8	binds		
B9		binds	
B10		binds	
B11		binds	
B12	binds		
